# Test results taken from US9212226B2, “Amino acid sequences directed against CXCR4 and other GPCRs and compounds comprising the same” (Ablynx N.V., priority 2008, dated 2015).
# B1: 238D2: Nanobody (VHH) raised against human CXCR4, SEQ ID NO: 238 (protein)
# VHH: EVQLVESGGGLVQTGGSLRLSCAASGFTFSSYAMSWVRQAPGKGLEWVSGIKSSGDSTRYAGSVKGRFTISRDNAKNMLYLQMYSLKPEDTAVYYCAKSRVSRTGLYTYDNRGQGTQVTVSS
# modifications: Nanobody, Nanobody constructs or fragments thereof
# B2: 238D4: Nanobody (VHH) raised against human CXCR4, SEQ ID NO: 239 (protein)
# VHH: EVQLMESGGGLVQAGGSLRLSCAASGRTFNNYAMGWFRRAPGKEREFVAAITRSGVRSGVSAIYGDSVKDRFTISRDNAKNTLYLQMNSLKPEDTAVYTCAASAIGSGALRRFEYDYSGQGTQVTVSS
# modifications: Nanobody, Nanobody constructs or fragments thereof
# Target: CXCR4 (Homo sapiens, UniProt P61073)
# Sequence (P61073 whole entry): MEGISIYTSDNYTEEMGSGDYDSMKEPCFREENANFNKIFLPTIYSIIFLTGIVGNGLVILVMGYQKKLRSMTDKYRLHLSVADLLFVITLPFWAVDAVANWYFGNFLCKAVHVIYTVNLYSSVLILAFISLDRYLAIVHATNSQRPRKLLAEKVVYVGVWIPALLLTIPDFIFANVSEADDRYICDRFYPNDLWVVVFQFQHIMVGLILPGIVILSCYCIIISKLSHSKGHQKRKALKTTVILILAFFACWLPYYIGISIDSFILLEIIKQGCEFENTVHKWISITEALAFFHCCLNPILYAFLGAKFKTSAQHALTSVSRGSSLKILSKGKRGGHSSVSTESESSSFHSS
# Assay: [125I]-CXCL12 competition binding on membranes from HEK293T cells transiently expressing CXCR4
# Conditions: for affinity to CXCR4: in words; for displacement of specifically bound [125I]-CXCL12: purified ligands, highest Nanobody test concentration 0.5 μM; for Binding (binding efficiency, competition binding with [125I]-CXCL12): screening of Nanobody clone pools
# Procedure: HEK293T cells were maintained at 37° C. in a humidified 5% CO2, 95% air atmosphere in Dulbecco's modified Eagle's medium (DMEM) containing 2 mM L-glutamine, 50 IU/ml penicillin, 50 μg/ml streptomycin, and 10% (v/v) fetal calf serum. Jurkat cells were cultured in a humidified 5% CO2, 95% air atmosphere in a 1:1 mixture of Dulbecco's modified Eagle's medium (DMEM) and Ham's F12 medium containing 2 mM L-glutamine, 50 IU/ml penicillin, 50 μg/ml streptomycin, and 10% (v/v) fetal calf serum. […] [^125 I]-Labelling— Radiolabeling of Nanobodies with ^125I was performed using the Iodo-gen method (Pierce, Rockford, Ill.) according to the manufacturer's protocol. ^125I-labeled Nanobodies was separated from free iodine (>99%) using a Sephadex G-25 gel filtration column (Amersham Biosciences, Piscataway, N.J.). […] Competition Binding Assays— Membranes from HEK293T cells transiently expressing CXCR3 or CXCR4 were prepared 48 h after transfection as follows. Cells were washed and scraped from the cell culture dishes with ice-cold PBS containing 1 mm EDTA. The scraped cells were pelleted at 1500×g for 10 min at 4° C. The pellet was washed and then resuspended in ice-cold membrane buffer (15 mM Tris, pH 7.5, 1 mM EGTA, 0.3 mM EDTA, and 2 mM MgCl2). The cell suspension was homogenized by 10 strokes at 1200 rpm using a Teflon-glass homogenizer and rotor and further subjected to three freeze-thaw cycles using liquid nitrogen. Membranes were separated by centrifugation at 40,000 g for 25 min at 4° C. The membrane pellet was washed and resuspended in ice-cold Tris-sucrose buffer (20 mM Tris, pH 7.4, and 250 mM sucrose) and frozen in liquid nitrogen. The total protein was determined using a Bradford assay (Bio-Rad). […] Membranes were then harvested over polyethylenimine (0.5%)-treated Whatman GF/C filter plates and washed three times with ice cold binding buffer containing 500 mM NaCl. Plates were counted by liquid scintillation. Inositol Phosphate Accumulation Assay— 24 hours post transfection with pcDNA3.1-CXCR4 and pcDNA1-HA-mG {alpha} qi5 (see Verzijl et al, 2008 supra), 250.000 cells were seeded into 24-wells plates and labelled overnight using inositol-free minimal essential medium supplemented with 1 μCi myo-[2-^3H]-inositol. The next day, the cells were washed once to remove not incorporated myo-[2-^3H]-inositol. […] In agonist experiments, the cells were directly stimulated with test compounds and LiCl (10 mM) in assay buffer for 2 h at 37° C. The stimulation was stopped by aspirating the stimulation medium and adding ice-cold 10 mM formic acid. The accumulated inositol phosphates were isolated by anion exchange chromatography and counted by liquid scintillation. CRE Reporter Gene Assay— HEK239T cells were transfected with pCRE/β-galactosidase (Chen W, Shields T S, Stork P J S, Cone R D (1995) Anal Biochem 226:349-354) and plasmids (pcDEF3 or pcDNA3.1) encoding the indicated receptors. 40,000 transfected cells per well were seeded into 96 well plates and grown in DMEM supplemented with 10% fetal calf serum. The medium was replaced 32 h after transfection by serum-free DMEM supplemented with 0.5% bovine serum albumin and ligands as indicated. […] The β-galactosidase activity was determined by the measurement of absorption at 420 nm with a PowerwaveX340 plate reader (Bio-Tek Instruments Inc., Winooski, Vt.) after incubation with the assay buffer when the OD420 value for forskolin (3 μM) controls reached 0.4-0.6. Chemotaxis Assay— The chemotactic responsiveness of Jurkat 3D cells was assessed using ChemoTx™ plates (Receptor Technologies Ltd., Oxon, UK) in which a upper cell-containing compartment is separated from a lower chemoattractant-containing compartment by a polyvinylpyrollidone-free polycarbonate filter with 5-μm pores. Cells were harvested, washed and resuspended in RPMI containing 0.5% bovine serum albumin and then loaded to 150,000 cells per well in a volume of 25 μl into the upper compartment of the chemotaxis chamber.
# [1] = membranes from HEK293T cells transiently expressing CXCR4, mean ± S.E.M.
# [2] = membranes from HEK293T cells transiently expressing CXCR4
Molecule,affinity to CXCR4,Displacem. (%) of [125I]-CXCL12 (maximal displacement) [1],"pKi, [125I]-CXCL12 [1]",displacement of specifically bound [125I]-CXCL12,"Binding (binding efficiency, competition binding with [125I]-CXCL12) [2]"
B1,low nanomolar range,93 ± 5%,8.01 ± 0.12,fully displace,++ (++ = 70-100%)
B2,low nanomolar range,,,fully displace,++ (++ = 70-100%)
